Test results published in patent US20060277614A1 (INSTITUT NAT L DE LA SANTE ET DE LA RECH MED, published 2006).
Where a chain is given by its changes, count along the chain named. Names may count otherwise. Blank lines part the entries; values can stand above or below the molecule they belong to.

Legend:
human prolactin receptor [1] = target: T1, human prolactin receptor (human, UniProt P16471 25-622); assay: cell-based or functional assay
T1 sequence (looked up): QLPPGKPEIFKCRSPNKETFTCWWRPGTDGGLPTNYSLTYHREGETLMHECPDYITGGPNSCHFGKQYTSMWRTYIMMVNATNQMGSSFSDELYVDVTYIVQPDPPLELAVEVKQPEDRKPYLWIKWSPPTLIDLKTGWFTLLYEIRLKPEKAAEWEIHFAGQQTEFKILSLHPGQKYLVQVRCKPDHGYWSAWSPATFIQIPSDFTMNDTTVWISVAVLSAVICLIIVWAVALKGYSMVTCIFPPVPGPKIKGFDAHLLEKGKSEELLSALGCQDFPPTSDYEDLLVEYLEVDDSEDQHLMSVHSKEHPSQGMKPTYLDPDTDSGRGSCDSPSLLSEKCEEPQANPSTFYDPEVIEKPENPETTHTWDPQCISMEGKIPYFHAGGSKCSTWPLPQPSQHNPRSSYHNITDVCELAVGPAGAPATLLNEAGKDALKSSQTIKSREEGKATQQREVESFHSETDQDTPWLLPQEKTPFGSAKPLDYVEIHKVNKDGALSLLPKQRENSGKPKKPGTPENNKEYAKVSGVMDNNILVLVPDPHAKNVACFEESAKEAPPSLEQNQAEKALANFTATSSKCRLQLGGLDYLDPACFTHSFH

human prolactin receptor [2] = target: T1, human prolactin receptor; assay: competition with [125I]-hPRL on HL5 cell homogenates (human PRLR); mean of three experiments
Description: (§1) The affinity of the various hPRL analogs for the human PRLR was estimated by their ability to compete [¹²⁵I]-hPRL for binding to this receptor. Binding affinities were determined using cell homogenates of HL5 cells (expressing the human PRLR), following the procedure previously described (KINET et al., J. Biol. Chem., 274, 26033-26043, 1999).
(§2) Briefly, hPRL was iodinated using IODOGEN, and its specific activity was in the range of 40-50 μCi/μg. Binding assays were performed overnight at room temperature using 150-300 μg cell homogenate protein in the presence of 30,000 cpm [¹²⁵I]-hPRL and increasing concentrations of unlabeled competitor (WT or mutated hPRL).
(§3) The relative binding affinity of hPRL analogs was calculated as the ratio of their IC₅₀ with respect to that of WT hPRL calculated from competition curves (regression in the linear part of sigmoids). Results presented in FIG. 2A are representative of at least three independent experiments performed in duplicate.

human prolactin receptor [3] = target: T1, human prolactin receptor; assay: competition with [125I]-hPRL on HL5 cell homogenates (human PRLR)
Description: as §1, §2, §3

[4] = target: human prolactin receptor (human) (UniProt P16471); assay: competition with [125I]-hPRL on HL5 cell homogenates (human PRLR); ratio of IC50 to that of WT hPRL
[5] = target: human prolactin receptor (human) (UniProt P16471); assay: cell-based or functional assay
human prolactin receptor [6] = target: T1, human prolactin receptor; assay: competition of unlabeled WT hPRL with [125I]-hPRL on HL5 cell homogenates (human PRLR); mean of three experiments
Description: as §1, §2, §3

- Ba/F3-hPRLR cell proliferation, antagonism of 10 ng/ml WT hPRL, molar excess needed (human prolactin receptor [1]): 10 to 50 fold
- IC50 (human prolactin receptor [2]): 0.166 mg/L
- fold lower affinity compared to WT hPRL (human prolactin receptor [3]): 10 fold
Molecule: Δ1-9-G129R-hPRL (from UniProt P01236 10-199) (ligand)

- increase in affinity compared to WT hPRL [4]: 20%
- LHRE-luciferase reporter in HL5 cells, EC50 against WT hPRL [5]: 2 fold
- LHRE-luciferase reporter in HL5 cells, maximal response against WT hPRL [5]: 120 to 140%
Molecule: Δ1-9-hPRL (from UniProt P01236 10-199) (ligand)

- LHRE-luciferase reporter in HL5 cells, EC50 against WT hPRL [5]: 2 fold
- LHRE-luciferase reporter in HL5 cells, maximal response against WT hPRL [5]: 120 to 140%
Molecule: Δ1-10-hPRL (from UniProt P01236 11-199) (ligand)

- IC50 (human prolactin receptor [6]): 0.018 mg/L
B1: wild-type human prolactin (ligand, UniProt P01236 29-227, looked up)
chain: LPICPGGAARCQVTLRDLFDRAVVLSHYIHNLSSEMFSEFDKRYTHGRGFITKAINSCHTSSLATPEDKEQAQQMNQKDFLSLIVSILRSWNEPLYHLVTEVRGMQEAPEAILSKAVEIEEQTKRLLEGMELIVSQVHPETKENEIYPVWSGLPSLQMADEESRLSAYYNLLHCLRRDSHKIDNYLKLLKCRIIHNNNC
notes: mature; Monomeric fraction used; Residue numbers (Cys4, Cys11, Gly129) count on the mature hormone; also called WT hPRL; hPRL

- fold lower affinity compared to WT hPRL (human prolactin receptor [3]): ~10 fold
B2: G129R-hPRL (ligand, human, UniProt P01236 29-227, looked up)
chain: B1 chain with G129R
notes: mature; also called single mutant G129R-hPRL

- LHRE-luciferase reporter in HL5 cells, EC50 against WT hPRL (human prolactin receptor [1]): ~2 fold
B3: Δ1-13-hPRL (ligand, human)
chain: MTLRDLFDRAVVLSHYIHNLSSEMFSEFDKRYTHGRGFITKAINSCHTSSLATPEDKEQAQQMNQKDFLSLIVSILRSWNEPLYHLVTEVRGMQEAPEAILSKAVEIEEQTKRLLEGMELIVSQVHPETKENEIYPVWSGLPSLQMADEESRLSAYYNLLHCLRRDSHKIDNYLKLLKCRIIHNNNC

- LHRE-luciferase reporter in HL5 cells, EC50 against WT hPRL (human prolactin receptor [1]): ~2 fold
B4: Δ1-11-hPRL (ligand, human)
chain: MQVTLRDLFDRAVVLSHYIHNLSSEMFSEFDKRYTHGRGFITKAINSCHTSSLATPEDKEQAQQMNQKDFLSLIVSILRSWNEPLYHLVTEVRGMQEAPEAILSKAVEIEEQTKRLLEGMELIVSQVHPETKENEIYPVWSGLPSLQMADEESRLSAYYNLLHCLRRDSHKIDNYLKLLKCRIIHNNNC

- LHRE-luciferase reporter in HL5 cells, EC50 against WT hPRL (human prolactin receptor [1]): ~2 fold
B5: Δ1-12-hPRL (ligand, human)
chain: MVTLRDLFDRAVVLSHYIHNLSSEMFSEFDKRYTHGRGFITKAINSCHTSSLATPEDKEQAQQMNQKDFLSLIVSILRSWNEPLYHLVTEVRGMQEAPEAILSKAVEIEEQTKRLLEGMELIVSQVHPETKENEIYPVWSGLPSLQMADEESRLSAYYNLLHCLRRDSHKIDNYLKLLKCRIIHNNNC

- LHRE-luciferase reporter in HL5 cells, EC50 against WT hPRL (human prolactin receptor [1]): ~3 fold
B6: Δ1-14-hPRL (ligand, human)
chain: MLRDLFDRAVVLSHYIHNLSSEMFSEFDKRYTHGRGFITKAINSCHTSSLATPEDKEQAQQMNQKDFLSLIVSILRSWNEPLYHLVTEVRGMQEAPEAILSKAVEIEEQTKRLLEGMELIVSQVHPETKENEIYPVWSGLPSLQMADEESRLSAYYNLLHCLRRDSHKIDNYLKLLKCRIIHNNNC

- IC50 (human prolactin receptor [2]): 0.187 mg/L
- fold lower affinity compared to WT hPRL (human prolactin receptor [3]): ~10 fold
B7: Δ1-14-G129R-hPRL (ligand, human)
chain: B6 chain with G116R
notes: range 15-199; Mature-hormone numbering; also called Δ1-14-G129R-PRL; double mutant Δ1-14-G129R-hPRL
